Laboratory results published in US6441158, “Oligomers that bind to ku protein” (Medical College of Georgia Research Institute, Inc.).

B1: #2 (ssRNA)
RNA: GGGAGGAUAUUUUCUCAGACCGUAAGCCUAUGCACGGAGCUUUCCCAGCUACAGAUGAAACCAGCUUGCAGCAUCGUGAACUAGGAUC
B2: #7-3 (ssRNA)
RNA: GGGAGGAUAUUUUCUCAGACCGUAAAGGUCGGCAUACAGAGUUCCGAAUGCGCGUAACUUCGACUUUGCAGCAUCGUGAACUAGGAUC
B3: SC5 (ssRNA)
RNA: GGGAGGAUAUUUUCUCAGACCGUAACUUGAACAUGAUAGGCUUACCCAUAGACAGAUUGACCCUUUUGCAGCAUCGUGAACUAGGAUC
B4: SC8 (ssRNA)
RNA: GGGAGGAUAUUUUCUCAGACCGUAAGUCCUUCACUAAUGCUUACCAGACACACUAAGAACGUCACUUGCAGCAUCGUGAACUAGGAUC
B5: #1-2 (ssRNA)
RNA: GGGAGGAUAUUUUCUCAGACCGUAACAACACCUUGCUUUCCCAAUACCCUGAAAUACAGUCGGAUUUGCAGCAUCGUGAACUAGGAUC
B6: SC2 (ssRNA)
RNA: GGGAGGAUAUUUUCUCAGACCGUAACACGCUCUACAACAGAUUGCGAAUUAACUUACGCUUCAUAUUGCAGCAUCGUGAACUAGGAUC
B7: SC12 (ssRNA)
RNA: GGGAGGAUAUUUUCUCAGACCGUAACUCGCAACAUGACUUCGAAAGUUUAAUCGUUCUUGUCAAUUGCAGCAUCGUGAACUAGGAUC
B8: SC4 (ssRNA)
RNA: GGGAGGAUAUUUUCUCAGACCGUAACCUAGUCUAAUCGAGGCUUUCCCAGUGACAAUGACCCACUUGCAGCAUCGUGAACUAGGAUC
B9: #84 (ssRNA)
RNA: GGGAGGAUAUUUUCUCAGACCGUAAAUCCGCGUACCGGGCUCAAAUGUCACUAUAGUAGAAAGCAUUGCAGCAUCGUGAACUAGGAUC
B10: SC6 (ssRNA)
RNA: GGGAGGAUAUUUUCUCAGACCGUAAGACUCACGAUGGACCAUACGCCUUCCCACUGGUCUUGUUAUUGCAGCAUCGUGAACUAGGAUC
B11: #1-17 (ssRNA)
RNA: GGGAGGAUAUUUUCUCAGACCGUAAUCCUUAUUUUAUGGCUUUCCCACGCACACAAGCGUCUGCGUUGCAGCAUCGUGAACUAGGAUC
B12: #52 (ssRNA)
RNA: GGGAGGAUAUUUUCUCAGACCGUAACUGAUCGUUCAAUGACUAUUCUUUACCUUGAGUAACCGAUUGCAGCAUCGUGAACUAGGAUC
B13: #42 (ssRNA)
RNA: GGGAGGAUAUUUUCUCAGACCGUAACAUCCUGGUACUCACUUCGACAUCGUACGUUCAAUCAUACUUGCAGCAUCGUGAACUAGGAUC
B14: SC11 (ssRNA)
RNA: GGGAGGAUAUUUUCUCAGACCGUAACUUAGUUUCGAUCGAAGCUCAUUGGCCCAGCGUGGAUAACUUGCAGCAUCGUGAACUAGGAUC
B15: SC9 (ssRNA)
RNA: GGGAGGAUAUUUUCUCAGACCGUAAUGCCUUUAGCUGCGACAAUGAACAGCAUGACCUCACUACUUGCAGCAUCGUGAACUAGGAUC
B16: #85 (ssRNA)
RNA: GGGAGGAUAUUUUCUCAGACCGUAACAAGUAUCACGCACUUUCCCAUUCACUGUUAGAGACUGAUUGCAGCAUCGUGAACUAGGAUC
B17: SC3 (ssRNA)
RNA: GGGAGGAUAUUUUCUCAGACCGUAACAUUACCACAGUUCUAGCAUCCCGCAAUGGUAAGUCCGCAUUGCAGCAUCGUGAACUAGGAUC
B18: SC13 (ssRNA)
RNA: GGGAGGAUAUUUUCUCAGACCGUAAACCUUUUUAGACGAACCUCAAAGUACAUUUAGUUGAAAACUUGCAGCAUCGUGAACUAGGAUC
B19: SC1 (ssRNA)
RNA: GGGAGGAUAUUUUCUCAGACCGUAAUUGUUCAACCUUGUCUAACAUGAUACCGAUACGGACUACAUUGCAGCAUCGUGAACUAGGAUC
B20: 21 bp double-stranded DNA (dsDNA)
DNA 1: CTCAGGCGTTGACGACAACCC
DNA 2: GGGTTGTCGTCAACGCCTGAG

The binders below were run against DNA-PK (Ku protein + DNA-PKcs) (Homo sapiens, UniProt P12956;P13010;P78527 P12956:2-609,P13010:2-732,P78527:1-4128) (assay: inhibition; DNA-PK kinase inhibition class A at 16-32 nM RNA). Conditions: tags: none, both purified from HeLa cell nuclear extracts.

Binder | activity
B1 | ≥ 85 % inhibition
B2 | ≥ 85 % inhibition
B3 | ≥ 85 % inhibition
B4 | ≥ 85 % inhibition
B5 | ≥ 85 % inhibition
B6 | ≥ 85 % inhibition

What follows are binders tested against T1, Ku protein (Ku70/Ku80 heterodimer) (Homo sapiens, UniProt P12956;P13010 P12956:2-609,P13010:2-732) (assay: EMSA). Conditions: tags: none, purified from HeLa cell nuclear extracts.
T1 sequence (P12956 2-609, chain 1 of 2): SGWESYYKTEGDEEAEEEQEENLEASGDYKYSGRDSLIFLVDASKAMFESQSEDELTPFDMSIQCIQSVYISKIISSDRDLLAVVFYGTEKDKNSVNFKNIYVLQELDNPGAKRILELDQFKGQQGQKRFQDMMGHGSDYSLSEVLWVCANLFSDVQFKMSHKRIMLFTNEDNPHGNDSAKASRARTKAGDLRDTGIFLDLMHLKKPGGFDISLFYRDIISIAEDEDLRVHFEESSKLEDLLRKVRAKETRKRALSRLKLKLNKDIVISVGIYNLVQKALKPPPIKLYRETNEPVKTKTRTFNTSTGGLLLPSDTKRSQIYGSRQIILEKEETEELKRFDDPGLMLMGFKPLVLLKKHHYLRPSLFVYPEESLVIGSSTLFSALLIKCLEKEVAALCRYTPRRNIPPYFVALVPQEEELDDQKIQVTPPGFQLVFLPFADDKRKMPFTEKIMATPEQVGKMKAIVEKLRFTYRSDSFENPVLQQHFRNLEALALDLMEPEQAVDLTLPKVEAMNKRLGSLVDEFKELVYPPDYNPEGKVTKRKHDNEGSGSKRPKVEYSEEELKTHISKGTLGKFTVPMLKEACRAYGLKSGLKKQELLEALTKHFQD
T1 sequence (P13010 2-732, chain 2 of 2): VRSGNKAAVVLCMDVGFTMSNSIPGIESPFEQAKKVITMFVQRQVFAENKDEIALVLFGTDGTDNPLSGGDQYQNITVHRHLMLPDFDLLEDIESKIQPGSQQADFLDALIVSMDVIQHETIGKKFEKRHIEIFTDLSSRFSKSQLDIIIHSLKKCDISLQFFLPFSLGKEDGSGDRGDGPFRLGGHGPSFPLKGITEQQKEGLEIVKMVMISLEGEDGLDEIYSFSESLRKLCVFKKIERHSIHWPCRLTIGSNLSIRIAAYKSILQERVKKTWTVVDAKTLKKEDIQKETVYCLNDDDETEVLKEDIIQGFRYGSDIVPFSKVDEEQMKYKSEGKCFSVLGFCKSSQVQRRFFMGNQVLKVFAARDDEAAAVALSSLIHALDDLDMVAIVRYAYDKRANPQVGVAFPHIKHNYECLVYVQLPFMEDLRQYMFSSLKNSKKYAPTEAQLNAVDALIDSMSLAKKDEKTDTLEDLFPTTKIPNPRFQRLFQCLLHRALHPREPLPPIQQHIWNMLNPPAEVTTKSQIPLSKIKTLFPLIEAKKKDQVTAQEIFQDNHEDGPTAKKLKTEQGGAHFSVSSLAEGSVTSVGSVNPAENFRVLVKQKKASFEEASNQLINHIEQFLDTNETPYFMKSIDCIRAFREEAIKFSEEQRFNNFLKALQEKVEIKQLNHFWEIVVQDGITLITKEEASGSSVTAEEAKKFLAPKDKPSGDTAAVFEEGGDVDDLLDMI

Binder | Kd
B7 | 0.5 nM
B8 | 1.7 nM
B9 | 1.8 nM
B2 | 1.8 nM
B10 | 2 nM
B3 | 2 nM
B11 | 3.2 nM
B12 | 3.2 nM
B13 | 4.5 nM
B14 | > 10 nM
B15 | 0.6 nM
B4 | 0.6 nM
B5 | 1.5 nM
B16 | 0.7 nM
B6 | 0.8 nM
B17 | 0.8 nM
B18 | 0.8 nM

The binders below were run against T1, Ku protein (Ku70/Ku80 heterodimer) (assay: EMSA; 5 mM MgCl2). Conditions: tags: none, purified from HeLa cell nuclear extracts.

Binder | Kd
B1 | 0.3 nM

These binders were tested against T1, Ku protein (Ku70/Ku80 heterodimer) (assay: EMSA; printed as SCI). Conditions: tags: none, purified from HeLa cell nuclear extracts.

Binder | Kd
B19 | 1.2 nM

These binders were tested against T1, Ku protein (Ku70/Ku80 heterodimer) (assay: EMSA; binding comparable to round 6 RNA (about 0.3 nM)). Conditions: tags: none, purified from HeLa cell nuclear extracts; label: 5'-32P.
Excerpt: Binding curves were obtained with EMSA followed by a nonlinear least squares fit of the data. […] A twenty-one base pair double-stranded DNA was end-labeled with T4 polynucleotide kinase.

Binder | binding result
B20 | binds
